Source: patent EP4696329A1 (BioRay Pharmaceutical Co., Ltd., dated 2024)
Positions count from the first letter of the chain named. In names and notes the source's numbering stands. Like-named read-outs stand apart in the source and are kept apart here.

Columns and labels:
[1] = molecular target: T1, human ROR1 protein (recombinant ROR1 antigen, Kactus Biosystems) (human, UniProt Q01973 30-406, limits assumed); test: BLI (Octet R8)
[2] = molecular target: T2, human ROR1 expressed on cells (MDA-MB-231, Jeko-1, PA-1, HCC1187) (human, UniProt Q01973 30-937); test: flow cytometry on PA-1 cells
T2 construct: also called hROR1

[3] = molecular target: T3, human ROR2 protein (hROR2, Kactus Biosystems, Cat. No. ROR-HM402) (human, UniProt Q01974 34-403, limits assumed); test: ELISA, plate coated with hROR2
[4] = molecular target: T2, human ROR1 expressed on cells …; test: flow cytometry on Jeko-1 cells
[5] = molecular target: T2, human ROR1 expressed on cells …; test: flow cytometry on MDA-MB-231 cells
[6] = molecular target: T1, human ROR1 protein (recombinant ROR1 …); test: binding to ROR1 (column 'Binding to ROR1'; method not described)
[7] = molecular target: T1, human ROR1 protein (recombinant ROR1 …); test: BLI (Octet R8), antibody captured on AHC sensor, ROR1 antigen as analyte
[8] = molecular target: T3, human ROR2 protein (hROR2, Kactus …); test: ELISA, plate coated with hROR2; remark: listed apart in the source
[9] = molecular target: T2, human ROR1 expressed on cells …; test: flow cytometry on MDA-MB-231 cells; remark: listed apart in the source
[10] = molecular target: T1, human ROR1 protein (recombinant ROR1 …); test: BLI (Octet R8), antibody captured on AHC sensor, ROR1 antigen as analyte; remark: listed apart in the source
[11] = molecular target: T3, human ROR2 protein (hROR2, Kactus …); test: ELISA, plate coated with hROR2; remark: listed apart in the source
[12] = molecular target: T2, human ROR1 expressed on cells …; test: flow cytometry on Jeko-1 cells; remark: listed apart in the source
[13] = molecular target: T2, human ROR1 expressed on cells …; test: flow cytometry on MDA-MB-231 cells; remark: listed apart in the source
[14] = molecular target: T2, human ROR1 expressed on cells …; test: flow cytometry on MDA-MB-231 cells; remark: listed apart in the source
[15] = molecular target: T1, human ROR1 protein (recombinant ROR1 …); test: binding to ROR1 (column 'Binding to ROR1'; method not described); remark: listed apart in the source
[16] = molecular target: T1, human ROR1 protein (recombinant ROR1 …); test: BLI (Octet R8), antibody captured on AHC sensor, ROR1 antigen as analyte; remark: listed apart in the source
[17] = molecular target: T1, human ROR1 protein (recombinant ROR1 …); test: as above; remark: listed apart in the source
[18] = molecular target: T3, human ROR2 protein (hROR2, Kactus …); test: ELISA, plate coated with hROR2; remark: listed apart in the source

T3 sequence (Q01974 34-403 limits assumed): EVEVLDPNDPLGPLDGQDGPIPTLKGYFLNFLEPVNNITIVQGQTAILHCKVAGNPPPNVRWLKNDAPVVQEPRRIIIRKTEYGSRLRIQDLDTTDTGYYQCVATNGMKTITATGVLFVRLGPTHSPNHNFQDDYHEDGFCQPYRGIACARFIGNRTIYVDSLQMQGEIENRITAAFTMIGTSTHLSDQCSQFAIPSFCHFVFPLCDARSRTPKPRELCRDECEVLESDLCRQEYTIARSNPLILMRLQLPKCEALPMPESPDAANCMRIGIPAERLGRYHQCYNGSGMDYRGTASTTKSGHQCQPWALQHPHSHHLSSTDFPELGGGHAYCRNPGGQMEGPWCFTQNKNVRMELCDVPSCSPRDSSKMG
T2 sequence (Q01973 30-937 limits assumed): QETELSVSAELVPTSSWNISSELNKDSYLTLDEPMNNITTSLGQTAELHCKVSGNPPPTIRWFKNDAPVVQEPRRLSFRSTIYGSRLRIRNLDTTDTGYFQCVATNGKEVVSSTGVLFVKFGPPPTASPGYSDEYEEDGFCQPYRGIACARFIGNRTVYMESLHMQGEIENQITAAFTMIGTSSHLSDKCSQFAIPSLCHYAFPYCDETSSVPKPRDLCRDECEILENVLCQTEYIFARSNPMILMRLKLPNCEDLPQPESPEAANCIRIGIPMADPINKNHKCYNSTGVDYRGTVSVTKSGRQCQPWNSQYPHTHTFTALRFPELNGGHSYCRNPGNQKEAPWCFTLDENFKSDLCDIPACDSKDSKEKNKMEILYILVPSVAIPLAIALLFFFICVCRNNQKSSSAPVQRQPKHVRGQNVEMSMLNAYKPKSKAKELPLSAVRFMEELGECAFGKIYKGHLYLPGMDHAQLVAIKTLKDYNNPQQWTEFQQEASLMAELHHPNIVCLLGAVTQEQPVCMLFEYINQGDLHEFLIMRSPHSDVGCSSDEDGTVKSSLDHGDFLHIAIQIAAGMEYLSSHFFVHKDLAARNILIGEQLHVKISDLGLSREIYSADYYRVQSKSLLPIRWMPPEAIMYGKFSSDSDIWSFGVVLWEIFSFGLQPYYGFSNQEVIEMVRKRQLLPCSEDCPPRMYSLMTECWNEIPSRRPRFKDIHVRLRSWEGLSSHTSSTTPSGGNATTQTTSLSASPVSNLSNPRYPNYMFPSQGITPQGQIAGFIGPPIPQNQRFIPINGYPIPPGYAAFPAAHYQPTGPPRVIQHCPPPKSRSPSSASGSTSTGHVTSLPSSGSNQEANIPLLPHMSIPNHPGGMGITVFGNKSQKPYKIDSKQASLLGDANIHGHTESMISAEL
T1 sequence (Q01973 30-406 limits assumed): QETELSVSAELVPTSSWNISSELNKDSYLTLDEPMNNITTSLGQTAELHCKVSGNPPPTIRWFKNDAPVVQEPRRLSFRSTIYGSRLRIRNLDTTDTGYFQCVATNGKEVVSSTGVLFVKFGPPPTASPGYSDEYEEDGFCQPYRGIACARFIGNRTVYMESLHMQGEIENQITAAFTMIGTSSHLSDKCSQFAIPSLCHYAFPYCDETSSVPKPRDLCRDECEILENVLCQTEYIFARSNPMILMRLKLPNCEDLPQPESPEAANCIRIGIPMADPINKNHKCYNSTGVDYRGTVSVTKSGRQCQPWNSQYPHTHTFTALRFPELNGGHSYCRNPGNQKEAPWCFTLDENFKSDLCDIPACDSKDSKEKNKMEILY

B1: AM3-ZH3 (antibody, human IgG1, kappa, V domains shown)
VH: EVQLVESGGGLVQPGGSLRLSCAASGFTFSSYPMSWVRQAPGKGLEWVSSISTGASAYFPDSVKGRFTISRDNAKNSLYLQMNSLRAEDTAVYYCARITTSTWYMDVWGQGTTVTVSS
VL: DIQMTQSPSAMSASVGDRVTITCKASQDIYSYLSWFQQKPGKVPKTLIYRANRLVRGVPSRFSGSGSGQEYTLTISSLQPEDMATYYCLQYDEFPYTFGQGTKLEIKR
notes: human IgG1 / kappa
B1 was tested, and the “fold affinity against H10-hVH4-hVL4” value [1] was 9 fold, the EC50 [2] was 0.33 nM and the MFI fold [2] was 2.5 fold. For the same binder, the binding result [3] was “no binding (tested: starting from 333.33 nM)”, the EC50 [4] was 0.031 nM and the MFI fold [4] was 2.8 fold. The EC50 [5] was 0.011 µg/mL, the EC50 [6] was 0.0123 µg/mL and the Kd [7] was 5 nM.

B2: chimeric antibody ch-D10 (antibody, human IgG1, kappa, V domains shown)
VH: QVQLKESGPGLVAPSQTLSITCTVSGFSLTSYGVHWVRQPPGKGLEWLGVIWAGGFTNYNSALKSRLSISKDNSKSQVLLKMTSLQTDDTAMYYCARRGSSYSMDYWGQGTSVTVSS
VL: EIVLSQSPAITAASLGQKVTITCSASSNVSYIHWYQQRSGTSPRPWIYEISKLASGVPVRFSGSGSGTSYSLTISSMEAEDAAIYYCQQWNYPLITFGSGTKLEIQR
notes: VH/VL of murine D10 on human IgG1 / kappa constant regions
For B2, the binding result [8] was “no binding (tested: starting from 333.33 nM)”, the EC50 [9] was 0.0634 µg/mL and the Kd [10] was 26.6 nM.

B3: YR-8 (antibody, human IgG1, kappa, V domains shown)
VH: QVQLQESGPGLVKPSETLSLTCTVSGFSLTRYGVHWIRQPPGKGLEWLGVIWAGGFTNYNSDLKSRLTISKDNSKNQVSLKLSSVTAADTAVYYCARRGDSYSMKYWGQGTLVTVSS
VL: EIVLTQSPATLSLSPGERATLSCSASSQVSYIHWYQQKPGQAPRPWIYETSKLASGIPARFSGSGSGTDYTLTISSLEPEDFAVYYCQQWNYPLITFGQGTKLEIKR
In the case of B3, the binding result [11] is reported as “no binding (tested: starting from 333.33 nM)”, the EC50 [12] is reported as 5 ng/mL and the EC50 [13] is reported as 0.02 µg/mL. The EC50 [14] was 0.03 µg/mL, the EC50 [15] was 0.01 µg/mL and the Kd [16] was 9.82 nM. For the same binder, the Kd [17] was 18 nM.

B4: YR-11 (antibody, human IgG1, kappa, V domains shown)
VH: B3 VH with L48I, D62A, L67V, D100N, S101E, K105S
VL: B3 VL
B4 was tested, and the binding result [11] was “binds”, the EC50 [12] was 7 ng/mL and the EC50 [13] was 0.02 µg/mL. It also gave a Kd [16] of 7.63 nM.

B5: YR-8-ES (antibody, human IgG1, kappa, V domains shown)
VH: B3 VH with N60E
VL: B3 VL
notes: YR-8 with N60E (Kabat) in the heavy chain; human IgG1 / kappa
For B5, the EC50 [2] was 0.25 nM, the MFI fold [2] was 2.6 fold and the binding result [18] was “no binding (tested: starting from 333.33 nM)”. It also gave an EC50 [4] of 0.15 nM, an MFI fold [4] of 3.6 fold and an EC50 [14] of 0.05 µg/mL. It also gave an EC50 [15] of 0.01 µg/mL and a Kd [17] of 19 nM.

B6: humanized antibody BRHu-3 (antibody, human IgG1, kappa, V domains shown)
VH: B3 VH with R31S, D62A, D100S, K105D
VL: B3 VL with Q28N, T50I
notes: humanized D10, human IgG1 / kappa
For B6, the binding result [8] was “no binding (tested: starting from 333.33 nM)”, the EC50 [12] was 30 ng/mL and the EC50 [9] was 0.0818 µg/mL. The EC50 [13] was 0.09 µg/mL, the Kd [10] was 32.3 nM and the Kd [16] was 63.6 nM.

B7: YR-10 (antibody, human IgG1, kappa, V domains shown)
VH: B3 VH with L48I, D62T, L67V, D100N, S101Q
VL: B3 VL with T96S
In the case of B7, the binding result [11] is reported as “binds”, the EC50 [12] is reported as 10 ng/mL and the EC50 [13] is reported as 0.06 µg/mL. It also gave a Kd [16] of 11.3 nM.
